Source: US20220412989A1, “COMPOSITIONS AND METHODS FOR DETECTING CELLS UNDERGOING FERROPTOSIS USING AN ANTIBODY” (THE TRUSTEES OF COLUMBIA UNIVERSITY IN THE CITY OF NEW YORK, priority 2020, published 2022)

Experiments:
[1] = test system: TfR1 protein in HT-1080 cells; assay: Western blot of TfR1 during ferroptosis; assay type: cell-based, human; conditions: RSL3-induced and IKE-induced ferroptosis
Procedure: HT-1080 cells were seeded in DMEM (Corning 10-013-CM) and 10% Hi-FBS with 1% penicillin and streptomycin (PS) with 1% MEM Non-Essential Amino Acids Solution (100×) (Thermo Fisher Scientific 11140-076) 16 h prior to use. DMSO or 1 μM of RSL3 was added and incubated for 4 h. Following treatment, the medium was aspirated from each dish and cells were washed twice with PBS. Cells were lysed with 70 μl lysis buffer (RIPA buffer from ThermoFisher, cat. 89900, 1 mM EDTA, 1 mM PMSF, 1× Halt™ protease inhibitor cocktail from ThermoFisher, cat. 78430 and 1× Halt™ phosphatase inhibitor cocktail from ThermoFisher, cat. 78426). Unlysed cells and debris were pelleted for 15 min at 16,000×g at 4° C. Samples were separated using SDS-PAGE and transferred to a polyvinylidene difluoride membrane. Transfer was performed using the iBlot2 system (Invitrogen). […]

HT-1080 cells = assay: Immunofluorescence staining of cells treated with cell death inducers, membrane intensity; assay type: cell-based, human
Procedure: HT-1080 (ATCC Cat #CRL-7951, RRID:CVCL_0317), A-673, SK-BR-3, SK-LMS-1 and Huh-7 cells were treated with 1 μM RSL3 for 4 h, 15 μM erastin for 8 h, 10 μM IKE for 8 h, 15 μM FINO2 for 8 h, 10 μM FIN56 for 8 h, 100 μM tBuOOH for 8 h, 1 μM staurosporine (STS) for 6 h, 2 μM camptothecin (CPT) for 24 h, 1 μM RSL3+5 μM Fer-1 for 4 h and 10 μM IKE+5 μM Fer-1 for 8 h on poly-lysine-coated cover slips (Sigma Aldrich P4832) in 24-well plate. Media were taken out and the cells were gently washed with PBS^++ (PBS with 1 mM CaCl2) and 0.5 mM MgCl2) twice. The cells were fixed and permeabilized by adding 200 μL/well of 4% paraformaldehyde (PFA) in PBS with 0.1% Triton X-100 (PBT), and incubated at room temperature for 18 min. The cells were then washed with PBT three times. Then the cells were blocked with 5% goat serum (ThermoFisher 50197Z) in PBT for 1 h at room temperature. The cells were incubated with purified mouse monoclonal antibodies (1:5 dilution), mouse mAb 3F3 FMA (1:500 dilution), Transferrin Receptor/CD71 Monoclonal Antibody, Clone: H68.4, Invitrogen (Thermo Fisher Scientific Cat #13-6800, RRID:AB_2533029, 1:250 dilution), Cd71 (D7G9X) XP® Rabbit mAb (Cell Signaling Technology Cat #13113, RRID:AB_2715594, 1:100 dilution), CD71 (3B8 2A1) (Santa Cruz Biotechnology Cat #sc-32272, RRID:AB_627167, 1:50 dilution), Tom20 (FL-145) (Santa Cruz Biotechnology Cat #sc-11415, RRID:AB_2207533, 1:250 dilution), PDI antibody [RL90]—ER Marker (Abcam Cat #ab2792, RRID:AB_303304, 1:100 dilution), Gm130 (D6B1) XP® Rabbit mAb (Cell Signaling Technology Cat #12480, RRID:AB_2797933, 1:3200 dilution), Anti-Malondialdehyde antibody (Abcam Cat #ab6463, RRID:AB_305484, 1:400 dilution), Anti-4 Hydroxynonenal antibody (Abcam Cat #ab46544, RRID:AB_722493, 1:50 dilution), ACSL4 Antibody (F-4) (Santa Cruz Biotechnology Cat #sc-365230, RRID:AB_10843105, 1:50 dilution), mouse mAb 1F83 (1:100 dilution), which specifically recognizes the malondialdehyde (MDA)-lysine adduct 4-methyl-1,4-dihydropyridine-3,5-dicarbaldehyde (MDHDC) (Yamada et al., 2001), in PBT with 1% BSA and 5% goat serum overnight at 4° C. The cells were washed with PBT for 5 min three times. The cells were incubated with Goat anti-Mouse IgG (H+L) Highly Cross-Adsorbed Secondary Antibody, Alexa Fluor 594 (Thermo Fisher Scientific Cat #A-11032, RRID:AB_2534091, 1:200 dilution) or Goat anti-Rabbit IgG (H+L) Highly Cross-Adsorbed Secondary Antibody, Alexa Fluor 488 (Thermo Fisher Scientific Cat #A-11034, RRID:AB_2576217, 1:200 dilution) at room temperature for 1 h. The cells were washed with PBT for 5 min three times. ProLong Diamond antifade mountant with DAPI (ThermoFisher P36962) was added to stain the nucleus. All images were captured on a Zeiss LSM 800 confocal microscope at Plan-Apochromat 63x/1.40 Oil DIC objective with constant laser intensity for all samples. When applicable, line-scan analysis was performed on representative confocal microscopy images using Zeiss LSM software to qualitatively visualize fluorescence overlap.
The quantification of the intensity of antibodies was analyzed using CellProfiler 3.1.8 (Carpenter et al., 2006) (CellProfiler Image Analysis Software, RRID:SCR_007358). Nuclei were firstly identified as primary objects using global minimum cross entropy strategy. […] Then mean intensities and size areas of nuclei, cytoplasm and plasma membranes were then measured and reported. […]

B1: 3F3-FMA: murine monoclonal IgG1 raised against ferroptotic membrane fractions; antigen is human transferrin receptor protein 1 (TfR1) (antibody, V domains shown)
VH: EVLLQQSGTELVRPGALVKLSCKASGFNIQDLYIHWVKQRPEQGLEWIGWIDPETDNTIYDPKFQGKASITADTSSNTAYLQLSSLTSEDTAMYYCSTGLLQWYFDVWGAGTAVTVSS
VL: DIVMTQSPSSLAMSIGQKVTMRCKSSQSLLNSYNQKNCLAWYQQKPGQSPKLLLYFVSTRESGVPDRFIGSGSGTDFTLTISSVQAEDLADYFCQQHYSTPLTFGAGTKLELK
- intensity of the bands in western blotting [1]: increased intensity of the bands
- staining / membrane intensity in RSL3-induced ferroptosis (HT-1080 cells; 1 μM RSL3, 4 h vs DMSO): stained cell boundaries and the inside puncta became brighter
- cell surface / membrane staining in STS-induced apoptosis (HT-1080 cells; 1 μM staurosporine, 6 h): wasn't detected
- cell surface / membrane intensity in camptothecin-induced apoptosis (HT-1080 cells; 2 μM camptothecin, 24 h): no significant increase
- membrane intensities in H2O2-treated cells (HT-1080 cells; 1 mM H2O2, 4 h): didn't observe increased membrane intensities
- staining pattern with other ferroptosis inducers (HT-1080 cells; IKE, erastin, FIN56, FINO2 and tBuOOH, 8 h): the same changes of 3F3-FMA pattern were observed
